{"source": "patent US20100092464A1", "about": "(Novartis, published 2010)", "binders": {"B1": {"name": "Fab fragment of recombinant murine RX1 (Fab, V domains shown)", "VH": "DVQLQESGPGLVKPSQSLSLTCTVTDYSITSDYAWNWIRQFPGNKLEWMGYISYSGSTSYNPSLKSRISITRDTSKNQFFLQLNSVTTEDTATYYCASFDYAHAMDYWGQGTSVTVSS", "VL": "not shown"}, "B2": {"name": "M-CSF-specific murine monoclonal antibody RX1 (antibody, V domains shown)", "VH": "B1 VH", "VL": "not shown", "notes": "Hybridoma-derived and recombinant murine RX1 are written as one molecule; also called Murine RX1; rRX1(mouse)"}, "B3": {"name": "Human Engineered RX1 antibody heRX1-1.G2 (antibody, V domains shown)", "VH": "B1 VH with S17T, N44K, S69T, T71S, F80S, T88A, E89A, S113T", "VL": "EIVLTQSPGTLSVSPGERVTFSCRASQSIGTSIHWYQQKTGQSPRLLIKYASERISGIPDRFSGSGSGTDFTLTISRVESEDFADYYCQQINSWPTTFGQGTKLEIKR"}, "B4": {"name": "Human Engineered RX1 antibody heRX1-1.G1 (antibody, V domains shown)", "VH": "B1 VH with S17T, N44K, S69T, T71S, F80S, T88A, E89A, S113T", "VL": "B3 VL"}, "B5": {"name": "Human Engineered RX1 antibody heRX1-1.G4 (antibody, V domains shown)", "VH": "B1 VH with S17T, N44K, S69T, T71S, F80S, T88A, E89A, S113T", "VL": "B3 VL"}, "B6": {"name": "Human Engineered RX1 antibody heRX1-10.G2 (antibody, V domains shown)", "VH": "QVQLQESGPGLVKPSQTLSLTCTVSDYSITSDYAWNWIRQFPGKGLEWMGYISYSGSTSYNPSLKSRITISRDTSKNQFSLQLNSVTAADTAVYYCASFDYAHAMDYWGQGTTVTVSS", "VL": "DIVLTQSPAFLSVTPGEKVTFTCQASQSIGTSIHWYQQKTDQAPKLLIKYASESISGIPSRFSGSGSGTDFTLTISSVEAEDAADYYCQQINSWPTTFGGGTKLEIKR", "notes": "Human Gamma-2 / Kappa constant regions"}, "B7": {"name": "Human Engineered RX1 antibody heRX1-9.G2 (antibody, V domains shown)", "VH": "B6 VH with Q1D, S25T, G45K, V93T", "VL": "B6 VL", "notes": "as for B6"}, "B8": {"name": "Human Engineered RX1 antibody heRX1-7.G2 (antibody, V domains shown)", "VH": "B6 VH with Q1D, S25T, G45K, V93T", "VL": "B3 VL with S43A, R54S"}, "B9": {"name": "Human Engineered RX1 antibody heRX1-2.G2 (antibody, V domains shown)", "VH": "B6 VH", "VL": "B3 VL"}, "B10": {"name": "Human Engineered RX1 antibody heRX1-4.G2 (antibody, V domains shown)", "VH": "B6 VH", "VL": "B3 VL with S43A, I55A, S56T"}, "B11": {"name": "Human Engineered RX1 antibody heRX1-5.G2 (antibody, V domains shown)", "VH": "B6 VH with Q1D, S25T, G45K, V93T", "VL": "B3 VL with R54S"}, "B12": {"name": "Human Engineered RX1 antibody heRX1-3.G2 (antibody, V domains shown)", "VH": "B6 VH with Q1D, S25T, G45K, V93T", "VL": "B3 VL with S43A, I55A, S56T"}, "B13": {"name": "Human Engineered RX1 antibody heRX1-8.G2 (antibody, V domains shown)", "VH": "B6 VH", "VL": "B3 VL with S43A, R54S"}}, "note": "Substitutions are numbered along the chain they refer to.", "data": [{"biological_target": "T1, human macrophage colony stimulating factor (M-CSF) (human, UniProt P09603 33-190, limits assumed)", "T1 sequence": "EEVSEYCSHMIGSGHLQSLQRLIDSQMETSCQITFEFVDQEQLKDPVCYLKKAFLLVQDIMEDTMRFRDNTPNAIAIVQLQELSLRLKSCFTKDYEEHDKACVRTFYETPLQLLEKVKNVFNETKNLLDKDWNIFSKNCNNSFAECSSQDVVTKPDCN", "assay": "cell-based or functional assay", "units": {"IC50 (read off the curve)": "µg/mL"}, "values": [{"binder": "B1", "IC50 (read off the curve)": "~2"}, {"binder": "B2", "IC50 (read off the curve)": "~0.02"}]}, {"biological_target": "T1, human macrophage colony stimulating …", "assay": "cell-based or functional assay", "remark": "another data set of the same source", "units": {"EC50 (M-CSF neutralisation)": "ng/mL"}, "values": [{"binder": "B2", "EC50 (M-CSF neutralisation)": 2}]}, {"biological_target": "T1, human macrophage colony stimulating …", "assay": "cell-based or functional assay", "remark": "another data set of the same source", "units": {"IC50 (read off the curve)": "ng/mL"}, "values": [{"binder": "B3", "IC50 (read off the curve)": "~30"}, {"binder": "B4", "IC50 (read off the curve)": "~20"}, {"binder": "B5", "IC50 (read off the curve)": "~20"}, {"binder": "B2", "IC50 (read off the curve)": "~20"}]}, {"biological_target": "T1, human macrophage colony stimulating …", "assay": "M-CSF and antibody mixed at equal molar ratios; size exclusion chromatography or light scattering", "text": "The antigen-antibody complexes that the various Human Engineered™ RX1 antibodies formed with MCSF were studied by combining M-CSF and antibody in buffer at equal molar ratios, followed by analysis of the size of the antigen-antibody complex using size exclusion chromatography or light scattering. […] The heRX1-9.G2 or 1-10.G2 antibodies appeared to form 2:1 or 2:2 complexes with MCSF of about 400 kDa. The heRX1-1.G2 appeared to form large lattice aggregates with MCSF of greater than 2×10⁶ Da. The IgG1 and IgG4 constructs formed small complexes similar to that of murine parent RX1.", "units": {"size of antigen-antibody complex": "kDa"}, "values": [{"binder": "B6", "size of antigen-antibody complex": "~400"}, {"binder": "B2", "size of antigen-antibody complex": "~200"}, {"binder": "B7", "size of antigen-antibody complex": "~400"}]}, {"biological_target": "T1, human macrophage colony stimulating …", "assay": "cell-based or functional assay", "remark": "another data set of the same source", "units": {"IC50 Fold Loss (M-NFS-60 cell proliferation)": "fold"}, "values": [{"binder": "B3", "IC50 Fold Loss (M-NFS-60 cell proliferation)": 2.8}, {"binder": "B6", "IC50 Fold Loss (M-NFS-60 cell proliferation)": 2.2}, {"binder": "B7", "IC50 Fold Loss (M-NFS-60 cell proliferation)": 3.6}, {"binder": "B8", "IC50 Fold Loss (M-NFS-60 cell proliferation)": 6.1}, {"binder": "B9", "IC50 Fold Loss (M-NFS-60 cell proliferation)": 3.1}, {"binder": "B10", "IC50 Fold Loss (M-NFS-60 cell proliferation)": 4.6}, {"binder": "B11", "IC50 Fold Loss (M-NFS-60 cell proliferation)": 6.5}, {"binder": "B12", "IC50 Fold Loss (M-NFS-60 cell proliferation)": 5.3}, {"binder": "B13", "IC50 Fold Loss (M-NFS-60 cell proliferation)": 5.9}]}, {"biological_target": "T1, human macrophage colony stimulating …", "assay": "cell-based or functional assay", "remark": "another data set of the same source", "units": {"IC50 (read off the curve)": "ng/mL"}, "values": [{"binder": "B3", "IC50 (read off the curve)": "~20"}, {"binder": "B4", "IC50 (read off the curve)": "~10"}, {"binder": "B5", "IC50 (read off the curve)": "~10"}, {"binder": "B2", "IC50 (read off the curve)": "~10"}]}]}
